Source: US20190055314A1 (ADAGENE, published 2019)
Positions count from the first letter of the chain named.

B1: AG10059 (antibody, human IgG4 S228P, kappa, V domains shown)
VH: EVQLVESGGGLVQPGGSLRLSCAASGYSITSGHYWAWIRQAPGKGLEWVSSISGYGSTTYYADSVKGRFTISRDNSKNTLYLQLNSLRAEDTAVYYCARGGSDAVLGDWFAYWGQGTLVTVSS
VL: DIQLTQSPSSLSASVGDRVTITCRASQGIGSFLAWYQQKPGKAPKLLIYDASNLETGVPSRFSGSGSGTDFTLTISSLQPEDFATYYCQQGYYLWTFGQGTKVEIKR
B2: AG10058 (antibody, human IgG4 S228P, kappa, V domains shown)
VH: EVQLVESGGGLVQPGGSLRLSCAASGFSLSTSGVGVGWIRQAPGKGLEWLALIDWDDDKYYSPSLKSRLTISRDNSKNTLYLQLNSLRAEDTAVYYCARGGSDTVLGDWFAYWGQGTLVTVSS
VL: B1 VL with G28S, I29V, G30S, S31P, F32Y, N53S, T56S, Y93S

How the values were obtained:
[1] = target: T1, human CD137-His6 (Sino Biological #10041-H08H) (human, UniProt Q07011 24-186); assay: SPR Biacore, IgG
T1 construct: Bought; also called human CD137 protein; not shown: His6 tag

[2] = target: T2, human CD137 fused with human FC fragment (human, UniProt Q07011 24-186, limits assumed); assay: ELISA, coated CD137-Fc
T2 construct: may be the same reagent as CD137-hisFc; also called human CD137 (FC fusion protein); not shown: human Fc fragment

[3] = target: T3, monkey CD137 fused with human FC fragment (cynomolgus monkey, UniProt Q07011 24-179 (human entry), limits assumed); assay: ELISA, coated CD137-Fc
T3 construct: also called Cyno CD137-Fc; not shown: human Fc fragment
T3 chain: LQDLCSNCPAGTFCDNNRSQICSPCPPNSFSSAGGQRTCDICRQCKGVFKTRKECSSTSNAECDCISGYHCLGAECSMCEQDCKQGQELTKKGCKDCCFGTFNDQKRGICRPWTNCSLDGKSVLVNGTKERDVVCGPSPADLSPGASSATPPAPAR

[4] = target: T4, full-length human CD137 on the cell surface (human, UniProt Q07011 18-255); assay: flow cytometry, HEK293F
T4 construct: also called Human WT

[5] = target: T5, full-length monkey CD137 on the cell surface (cynomolgus monkey, UniProt Q07011 24-179 (human entry)); assay: flow cytometry, HEK293F
T5 chain: T3 chain

Hu_GQ109AA = target: T6, Hu_GQ109AA (human, UniProt Q07011 18-255); assay: flow cytometry, HEK293F
T6 construct: On HEK293F

Hu_EL111AA = target: T7, Hu_EL111AA (human, UniProt Q07011 18-255); assay: flow cytometry, HEK293F
T7 construct: On HEK293F

Hu_TN137AA = target: T8, Hu_TN137AA (human, UniProt Q07011 18-255); assay: flow cytometry, HEK293F
T8 construct: On HEK293F

[6] = target: T9, monkey CD137 protein (Biacore) (cynomolgus monkey, UniProt Q07011 24-179 (human entry), limits assumed); assay: SPR Biacore, IgG captured
T9 construct: Construct used as SPR analyte not described; also called Cyno CD137
T9 chain: T3 chain

[7] = target: T4, full-length human CD137 on the cell …; assay: cell-based or functional assay
[8] = target: T5, full-length monkey CD137 on the cell …; assay: cell-based or functional assay
Hu_CRD3 = target: T10, Hu_CRD3 (human, limits assumed); assay: flow cytometry, yeast display [Cont.]
T10 construct: also called human CD137 CRD3
T10 chain: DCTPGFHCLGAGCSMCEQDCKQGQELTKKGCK

Hu_CRD4 = target: T11, Hu_CRD4 (human, UniProt Q07011 119-159, limits assumed); assay: flow cytometry, yeast display [Cont.]
T11 construct: also called human CD137 CRD4
T11 chain: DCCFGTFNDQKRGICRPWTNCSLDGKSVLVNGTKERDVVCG

Hu_CRD1-CRD2-CRD3 = target: T12, Hu_CRD1-CRD2-CRD3 (human, UniProt Q07011 24-118, limits assumed); assay: flow cytometry, yeast display [Cont.]
T12 construct: also called three CRD units (CRD1-CRD2-CRD3) of human CD137

Hu_CRD3-CRD4 = target: T13, Hu_CRD3-CRD4 (human, UniProt Q07011 87-159, limits assumed); assay: flow cytometry, yeast display [Cont.]
T13 construct: also called two CRD units (CRD3-CRD4) of human CD137

Hu_CRD2-CRD3-CRD4 = target: T14, Hu_CRD2-CRD3-CRD4 (human, UniProt Q07011 46-159, limits assumed); assay: flow cytometry, yeast display [Cont.]
T14 construct: also called three CRD units (CRD2-CRD3-CRD4) of human CD137

[9] = target: T4, full-length human CD137 on the cell …; assay: flow cytometry, HEK293F cells expressing CD137 or mutant [Cont.]
[10] = target: T15, full-length mouse CD137 on the cell surface (mouse, UniProt P20334 24-178); assay: as above
T15 sequence: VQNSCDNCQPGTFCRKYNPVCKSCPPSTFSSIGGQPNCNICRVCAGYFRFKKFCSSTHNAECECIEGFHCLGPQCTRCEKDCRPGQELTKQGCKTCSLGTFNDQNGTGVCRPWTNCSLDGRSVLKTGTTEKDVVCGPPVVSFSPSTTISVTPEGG

Hu_FN125AA = target: T16, Hu_FN125AA (human, UniProt Q07011 18-255); assay: as above
T16 construct: On HEK293F

Hu_PW135AA = target: T17, Hu_PW135AA (human, UniProt Q07011 18-255); assay: as above
T17 construct: On HEK293F

Hu_GT150AA = target: T18, Hu_GT150AA (human, UniProt Q07011 18-255); assay: as above
T18 construct: On HEK293F

[11] = target: T4, full-length human CD137 on the cell …; assay: flow cytometry, PMA/ionomycin-activated human T cells, antibody 100 nM
[12] = target: T5, full-length monkey CD137 on the cell …; assay: flow cytometry, PMA/ionomycin-activated monkey T cells, antibody 100 nM
[13] = target: T4, full-length human CD137 on the cell …; assay: flow cytometry ligand competition, HEK293F cells with human CD137, antibody 100 nM then 33 nM biotinylated CD137L, streptavidin-Alexa 647

T4 sequence (Q07011 18-255): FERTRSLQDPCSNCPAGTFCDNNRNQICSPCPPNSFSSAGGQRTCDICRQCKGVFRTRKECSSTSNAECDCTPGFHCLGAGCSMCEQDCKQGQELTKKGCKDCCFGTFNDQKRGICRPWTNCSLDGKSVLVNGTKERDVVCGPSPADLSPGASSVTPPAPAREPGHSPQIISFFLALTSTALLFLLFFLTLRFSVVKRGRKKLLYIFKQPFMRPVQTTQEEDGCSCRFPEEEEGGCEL
T7 sequence (Q07011 18-255 E111A/L112A): as the sequence (Q07011 18-255) above, with E94A, L95A counted along it
T17 sequence (Q07011 18-255 P135A/W136A): as the sequence (Q07011 18-255) above, with P118A, W119A counted along it
T8 sequence (Q07011 18-255 T137A/N138A): as the sequence (Q07011 18-255) above, with T120A, N121A counted along it
T6 sequence (Q07011 18-255 G109A/Q110A): as the sequence (Q07011 18-255) above, with G92A, Q93A counted along it
T16 sequence (Q07011 18-255 F125A/N126A): as the sequence (Q07011 18-255) above, with F108A, N109A counted along it
T18 sequence (Q07011 18-255 G150A/T151A): as the sequence (Q07011 18-255) above, with G133A, T134A counted along it

Row | Kd [1] | koff [1] | kon [1] | Kd [2] | Kd [3] | Kd [4] | Kd [5] | binding result (Hu_GQ109AA) | binding result (Hu_EL111AA) | binding result (Hu_TN137AA) | Kd [6] | NFκB luciferase reporter, 293T cells with human CD137: EC50 (read off the curve) [7] | NFκB luciferase reporter, 293T cells with monkey CD137: EC50 (read off the curve) [8] | % in upper right quadrant (Hu_CRD3) | Mean (Hu_CRD3) | % in upper right quadrant (Hu_CRD4) | Mean (Hu_CRD4) | % in upper right quadrant (Hu_CRD1-CRD2-CRD3) | Mean (Hu_CRD1-CRD2-CRD3) | % in upper right quadrant (Hu_CRD3-CRD4) | also measured | Binder
1 | 38 nM | 0.0063 s⁻¹ | 160000 M⁻¹ s⁻¹ | 0.8 nM | 0.4 nM | 5 nM | 2.6 nM | binds | binds | binds | 23.1 nM | ~10 nM | ~1 nM | 0.25% | 6200 | 0.17% | 16100 | 49.4% | 15100 | 0.39% | Mean (Hu_CRD3-CRD4): 11700; % in upper right quadrant (Hu_CRD2-CRD3-CRD4): 0.25%; Mean (Hu_CRD2-CRD3-CRD4): 14900; % in upper right quadrant [9]: 34.7%; % in upper right quadrant [10]: 0.041%; binding result (Hu_FN125AA): binds; Mean (Hu_PW135AA): 31600; Mean (Hu_GT150AA): 13300; % of cells positive for antibody binding [11]: 45.1%; % of cells positive for antibody binding [12]: 8.1%; % in upper right quadrant (CD137L signal) [13]: 52.9%; Median (APC signal of bound biotinylated CD137L) [13]: 46500 | B1
2 | 5.9 nM | 0.0024 s⁻¹ | 410000 M⁻¹ s⁻¹ | 0.2 nM | 0.3 nM | 1.8 nM | 2 nM | binds | binds | binds | 9.3 nM | ~5 nM | ~1 nM | 0.15% | 10400 | 0.15% | 16100 | 55.6% | 20000 | 0.19% | Mean (Hu_CRD3-CRD4): 18200; % in upper right quadrant (Hu_CRD2-CRD3-CRD4): 0.91%; Mean (Hu_CRD2-CRD3-CRD4): 7680; % in upper right quadrant [9]: 27.3%; % in upper right quadrant [10]: 31.1%; binding result (Hu_FN125AA): binds; Mean (Hu_PW135AA): 24300; Mean (Hu_GT150AA): 12100; % of cells positive for antibody binding [11]: 52%; % of cells positive for antibody binding [12]: 9.8%; % in upper right quadrant (CD137L signal) [13]: 37.6%; Median (APC signal of bound biotinylated CD137L) [13]: 22300 | B2
